# Reference: doi:10.1101/2022.08.30.505852 (bioRxiv, 2022)
# Values joined by “and” are separate entries in the source; they are usually repeats but may differ in a detail not shown here. Equal entries are not always repeated.
# B1: TAZ1 domain of CBP (residues 346-440) (domain or fragment)
# chain: not shown
# B2: βCAT_(TAD2), β-catenin residues 730-781 (domain or fragment, human, UniProt P35222 730-781, looked up)
# chain: GMDPMMEHEMGGHHPGADYPVDGLPDLGHAQDLMDGLPPGDSNQLAWFDTDL
# What was measured:
# Experiment in all cases: ITC
# [1] = target: B1
# [2] = target: T1, βCAT_(CTERM), β-catenin residues 666-781 (human, UniProt P35222 666-781)
# T1 sequence (looked up): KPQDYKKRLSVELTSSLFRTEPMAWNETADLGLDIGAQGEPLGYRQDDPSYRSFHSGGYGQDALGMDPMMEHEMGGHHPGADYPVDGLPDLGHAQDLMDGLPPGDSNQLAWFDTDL
# [3] = target: B2
# βCAT_(CTERM) D764A = target: T2, βCAT_(CTERM) D764A (human, UniProt P35222 666-781, D764A)
# T2 sequence (looked up): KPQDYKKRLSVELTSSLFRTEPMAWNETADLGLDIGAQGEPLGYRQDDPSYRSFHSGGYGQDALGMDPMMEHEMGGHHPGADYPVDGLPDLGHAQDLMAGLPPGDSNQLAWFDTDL
# βCAT_(CTERM) F777A = target: T3, βCAT_(CTERM) F777A (human, UniProt P35222 666-781, F777A)
# T3 sequence (looked up): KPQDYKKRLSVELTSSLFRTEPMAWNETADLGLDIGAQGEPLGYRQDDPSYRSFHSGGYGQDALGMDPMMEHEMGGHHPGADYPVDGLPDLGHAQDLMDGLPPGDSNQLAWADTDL
# βCAT_(CTERM) D751A = target: T4, βCAT_(CTERM) D751A (human, UniProt P35222 666-781, D751A)
# T4 sequence (looked up): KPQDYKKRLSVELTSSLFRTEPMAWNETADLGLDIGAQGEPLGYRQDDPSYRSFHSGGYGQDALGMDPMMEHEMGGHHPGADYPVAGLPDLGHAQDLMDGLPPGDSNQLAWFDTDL
# βCAT_(CTERM) D761A = target: T5, βCAT_(CTERM) D761A (human, UniProt P35222 666-781, D761A)
# T5 sequence (looked up): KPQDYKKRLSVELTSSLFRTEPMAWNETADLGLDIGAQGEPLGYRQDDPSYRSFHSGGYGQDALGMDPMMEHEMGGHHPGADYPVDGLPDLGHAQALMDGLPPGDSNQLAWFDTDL
binder,measurement,setting,value
"VDGLPDLGHAQDLMDGLPPGDSNQLAWFDTDL (peptide, UniProt P35222 750-781, looked up) [βCAT_(750-781), β-catenin residues 750-781]",Kd,[1],2170 ± 70 nM
"TAZ2 domain of p300 (residues 1723-1812 with four stabilizing mutations) (domain or fragment, UniProt Q09472 1723-1812, looked up) ATQSPGDSRRLSIQRAIQSLVHAAQCRNANCSLPSCQKMKRVVQHTKGCKRKTNGGCPICKQLIALAAYHAKHCQENKCPVPFCLNIKQK",Kd2 (two-site fit),[2],3.42 ± 0.2 µM
same,Kd2 (two-site fit),[3],1.18 ± 0.43 µM
B1,Kd,βCAT_(CTERM) D764A,320 nM and 600 nM
same,Kd,βCAT_(CTERM) F777A,550 nM and 320 nM
same,Kd2 (two-site fit),[2],0.65 ± 0.22 µM
same,Kd,βCAT_(CTERM) D751A,390 nM and 550 nM
same,Kd,βCAT_(CTERM) D761A,600 nM and 390 nM
B2,Kd,[1],380 ± 20 nM
